B1: Speckle-type POZ protein (Homo sapiens), O43791 (parent)
chain: MSRVPSPPPPAEMSSGPVAESWCYTQIKVVKFSYMWTINNFSFCREEMGEVIKSSTFSSGANDKLKWCLRVNPKGLDEESKDYLSLYLLLVSCPKSEVRAKFKFSILNAKGEETKAMESQRAYRFVQGKDWGFKKFIRRDFLLDEANGLLPDDKLTLFCEVSVVQDSVNISGQNTMNMVKVPECRLADELGGLWENSRFTDCCLCVAGQEFQAHKAILAARSPVFSAMFEHEMEESKKNRVEINDVEPEVFKEMMCFIYTGKAPNLDKMADDLLAAADKYALERLKVMCEDALCSNLSVENAAEILILADLHSADQLKTQAVDFINYHASDVLETSGWKSMVVSHPHLVAEAYRSLASAQCPFLGPPRKRLKQS
partner: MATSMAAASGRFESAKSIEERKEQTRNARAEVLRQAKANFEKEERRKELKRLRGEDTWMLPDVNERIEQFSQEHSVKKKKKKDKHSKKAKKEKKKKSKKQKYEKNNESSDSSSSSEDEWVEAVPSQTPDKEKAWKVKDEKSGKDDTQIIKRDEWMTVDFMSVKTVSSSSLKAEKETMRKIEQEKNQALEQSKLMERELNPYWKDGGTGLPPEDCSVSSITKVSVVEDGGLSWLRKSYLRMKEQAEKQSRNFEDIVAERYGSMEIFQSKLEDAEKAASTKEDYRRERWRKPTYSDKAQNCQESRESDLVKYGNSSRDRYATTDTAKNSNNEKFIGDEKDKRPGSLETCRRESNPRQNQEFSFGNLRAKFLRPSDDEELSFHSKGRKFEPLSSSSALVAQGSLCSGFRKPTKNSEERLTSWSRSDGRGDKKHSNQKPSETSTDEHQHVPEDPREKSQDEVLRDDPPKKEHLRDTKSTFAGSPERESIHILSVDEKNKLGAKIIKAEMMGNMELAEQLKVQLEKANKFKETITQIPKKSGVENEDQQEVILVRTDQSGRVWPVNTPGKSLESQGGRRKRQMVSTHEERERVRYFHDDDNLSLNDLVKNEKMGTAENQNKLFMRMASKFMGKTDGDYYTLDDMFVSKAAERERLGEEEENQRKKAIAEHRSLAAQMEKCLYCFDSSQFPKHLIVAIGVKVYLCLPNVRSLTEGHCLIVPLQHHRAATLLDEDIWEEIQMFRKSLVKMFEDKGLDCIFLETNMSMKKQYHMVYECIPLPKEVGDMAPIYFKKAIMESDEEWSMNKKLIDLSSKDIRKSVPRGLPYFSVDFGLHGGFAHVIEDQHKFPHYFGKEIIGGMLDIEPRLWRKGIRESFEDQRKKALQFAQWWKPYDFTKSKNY
B2: Speckle-type POZ protein (Homo sapiens), O43791 (parent)
chain: B1 chain
partner: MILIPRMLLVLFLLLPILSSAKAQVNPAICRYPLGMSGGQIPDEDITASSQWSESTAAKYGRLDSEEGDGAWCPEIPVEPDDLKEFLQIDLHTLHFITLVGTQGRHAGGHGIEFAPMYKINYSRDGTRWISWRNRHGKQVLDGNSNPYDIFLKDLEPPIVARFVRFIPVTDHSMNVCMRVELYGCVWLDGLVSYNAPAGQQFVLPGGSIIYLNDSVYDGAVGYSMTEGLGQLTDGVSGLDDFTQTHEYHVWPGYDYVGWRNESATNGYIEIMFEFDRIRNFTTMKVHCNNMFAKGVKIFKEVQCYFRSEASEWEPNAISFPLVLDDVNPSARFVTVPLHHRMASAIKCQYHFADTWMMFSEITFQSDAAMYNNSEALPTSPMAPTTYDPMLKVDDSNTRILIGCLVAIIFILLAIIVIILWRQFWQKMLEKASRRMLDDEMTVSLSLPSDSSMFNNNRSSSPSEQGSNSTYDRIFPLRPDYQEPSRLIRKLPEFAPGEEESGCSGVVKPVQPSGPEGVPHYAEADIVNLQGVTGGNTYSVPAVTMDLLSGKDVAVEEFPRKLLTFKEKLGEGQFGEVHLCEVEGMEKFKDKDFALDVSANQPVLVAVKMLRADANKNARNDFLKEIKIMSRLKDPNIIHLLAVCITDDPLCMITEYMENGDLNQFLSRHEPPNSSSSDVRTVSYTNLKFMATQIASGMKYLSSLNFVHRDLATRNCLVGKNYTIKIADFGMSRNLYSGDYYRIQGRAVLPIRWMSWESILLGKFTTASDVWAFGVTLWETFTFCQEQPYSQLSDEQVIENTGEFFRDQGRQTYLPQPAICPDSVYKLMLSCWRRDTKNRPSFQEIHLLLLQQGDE
B3: Speckle-type POZ protein (Homo sapiens), O43791 (parent)
chain: B1 chain
partner: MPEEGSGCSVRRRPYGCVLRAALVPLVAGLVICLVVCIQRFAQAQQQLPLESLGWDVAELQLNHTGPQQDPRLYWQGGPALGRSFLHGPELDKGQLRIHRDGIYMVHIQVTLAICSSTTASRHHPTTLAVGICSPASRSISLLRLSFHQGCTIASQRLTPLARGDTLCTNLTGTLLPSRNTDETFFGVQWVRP

Variants of: B1
Conditions: with CWF19L2, Q2TBE0

| Variant | effect of a mutation on the interaction |
| --- | --- |
| MSRVPSPPPPAEMSSGPVAESWCYTQIKVVKFSYMWTINNFSFCREEMGEVIKSSTFSSGANDKLKWCLRVNPKGLDEESKDYLSLCLLLVSCPKSEVRAKFKFSILNAKGEETKAMESQRAYRFVQGKDWGFKKFIRRDFLLDEANGLLPDDKLTLFCEVSVVQDSVNISGQNTMNMVKVPECRLADELGGLWENSRFTDCCLCVAGQEFQAHKAILAARSPVFSAMFEHEMEESKKNRVEINDVEPEVFKEMMCFIYTGKAPNLDKMADDLLAAADKYALERLKVMCEDALCSNLSVENAAEILILADLHSADQLKTQAVDFINYHASDVLETSGWKSMVVSHPHLVAEAYRSLASAQCPFLGPPRKRLKQS [Y87C] | with no effect |

Variants of: B1
Conditions: with CWF19L2, Q2TBE0
Remark: another data set of the same source

| Variant | effect of a mutation on the interaction |
| --- | --- |
| MSRVPSPPPPAEMSSGPVAESWCYTQIKVVKFSYMWTINNFSFCREEMGEVIKSSTFSSGANDKLKWCLRVNPKGLDEESKDYLSLYLLLVSCPKSEVRAKFKFSILNAKGEETKAMESQRAYRFVQGKDWGLKKFIRRDFLLDEANGLLPDDKLTLFCEVSVVQDSVNISGQNTMNMVKVPECRLADELGGLWENSRFTDCCLCVAGQEFQAHKAILAARSPVFSAMFEHEMEESKKNRVEINDVEPEVFKEMMCFIYTGKAPNLDKMADDLLAAADKYALERLKVMCEDALCSNLSVENAAEILILADLHSADQLKTQAVDFINYHASDVLETSGWKSMVVSHPHLVAEAYRSLASAQCPFLGPPRKRLKQS [F133L] | with no effect |

Variants of: B1
Conditions: with CWF19L2, Q2TBE0
Remark: another data set of the same source

| Variant | effect of a mutation on the interaction |
| --- | --- |
| MSRVPSPPPPAEMSSGPVAESWCYTQIKVVKFSYMWTINNFSFCREEMGEVIKSSTFSSGANDKLKWCLRVNPKGLDEESKDYLSLYLLLVSCPKSEVRAKFKFSILNAKGEETKAMESQRAYRFVQGKDWGVKKFIRRDFLLDEANGLLPDDKLTLFCEVSVVQDSVNISGQNTMNMVKVPECRLADELGGLWENSRFTDCCLCVAGQEFQAHKAILAARSPVFSAMFEHEMEESKKNRVEINDVEPEVFKEMMCFIYTGKAPNLDKMADDLLAAADKYALERLKVMCEDALCSNLSVENAAEILILADLHSADQLKTQAVDFINYHASDVLETSGWKSMVVSHPHLVAEAYRSLASAQCPFLGPPRKRLKQS [F133V] | with no effect |

Variants of: B1
Conditions: with CWF19L2, Q2TBE0
Remark: another data set of the same source

| Variant | effect of a mutation on the interaction |
| --- | --- |
| MSRVPSPPPPAEMSSGPVAESWCYTQIKVVKFSYMWTINNFSFCREEMGEVIKSSTFSSGANDKLKWCLRVNPKGLDEESKDYLSLYLLLVSCPKSEVRAKCKFSILNAKGEETKAMESQRAYRFVQGKDWGFKKFIRRDFLLDEANGLLPDDKLTLFCEVSVVQDSVNISGQNTMNMVKVPECRLADELGGLWENSRFTDCCLCVAGQEFQAHKAILAARSPVFSAMFEHEMEESKKNRVEINDVEPEVFKEMMCFIYTGKAPNLDKMADDLLAAADKYALERLKVMCEDALCSNLSVENAAEILILADLHSADQLKTQAVDFINYHASDVLETSGWKSMVVSHPHLVAEAYRSLASAQCPFLGPPRKRLKQS [F102C] | with no effect |

Variants of: B2
Conditions: with ddr2_human DDR2, Q16832

| Variant | effect of a mutation on the interaction |
| --- | --- |
| MSRVPSPPPPAEMSSGPVAESWCYTQIKVVKFSYMWTINNFSFCREEMGEVIKSSTFSSGANDKLKWCLRVNPKGLDEESKDYLSLYLLLVSCPKSEVRAKCKFSILNAKGEETKAMESQRAYRFVQGKDWGFKKFIRRDFLLDEANGLLPDDKLTLFCEVSVVQDSVNISGQNTMNMVKVPECRLADELGGLWENSRFTDCCLCVAGQEFQAHKAILAARSPVFSAMFEHEMEESKKNRVEINDVEPEVFKEMMCFIYTGKAPNLDKMADDLLAAADKYALERLKVMCEDALCSNLSVENAAEILILADLHSADQLKTQAVDFINYHASDVLETSGWKSMVVSHPHLVAEAYRSLASAQCPFLGPPRKRLKQS [F102C] | with no effect |

Variants of: B2
Conditions: with ddr2_human DDR2, Q16832
Remark: another data set of the same source

| Variant | effect of a mutation on the interaction |
| --- | --- |
| MSRVPSPPPPAEMSSGPVAESWCYTQIKVVKFSYMWTINNFSFCREEMGEVIKSSTFSSGANDKLKWCLRVNPKGLDEESKDYLSLYLLLVSCPKSEVRAKFKFSILNAKGEETKAMESQRAYRFVQGKDWGLKKFIRRDFLLDEANGLLPDDKLTLFCEVSVVQDSVNISGQNTMNMVKVPECRLADELGGLWENSRFTDCCLCVAGQEFQAHKAILAARSPVFSAMFEHEMEESKKNRVEINDVEPEVFKEMMCFIYTGKAPNLDKMADDLLAAADKYALERLKVMCEDALCSNLSVENAAEILILADLHSADQLKTQAVDFINYHASDVLETSGWKSMVVSHPHLVAEAYRSLASAQCPFLGPPRKRLKQS [F133L] | with no effect |

Variants of: B3
Conditions: with cd70_human CD70, P32970

| Variant | effect of a mutation on the interaction |
| --- | --- |
| MSRVPSPPPPAEMSSGPVAESWCYTQIKVVKFSYMWTINNFSFCREEMGEVIKSSTFSSGANDKLKWCLRVNPKGLDEESKDYLSLYLLLVSCPKSEVRAKFKFSILNAKGEETKAMESQRAYRFVQGKDWGVKKFIRRDFLLDEANGLLPDDKLTLFCEVSVVQDSVNISGQNTMNMVKVPECRLADELGGLWENSRFTDCCLCVAGQEFQAHKAILAARSPVFSAMFEHEMEESKKNRVEINDVEPEVFKEMMCFIYTGKAPNLDKMADDLLAAADKYALERLKVMCEDALCSNLSVENAAEILILADLHSADQLKTQAVDFINYHASDVLETSGWKSMVVSHPHLVAEAYRSLASAQCPFLGPPRKRLKQS [F133V] | with no effect |

Variants of: B3
Conditions: with cd70_human CD70, P32970
Remark: another data set of the same source

| Variant | effect of a mutation on the interaction |
| --- | --- |
| MSRVPSPPPPAEMSSGPVAESWCYTQIKVVKFSYMWTINNFSFCREEMGEVIKSSTFSSGANDKLKWCLRVNPKGLDEESKDYLSLCLLLVSCPKSEVRAKFKFSILNAKGEETKAMESQRAYRFVQGKDWGFKKFIRRDFLLDEANGLLPDDKLTLFCEVSVVQDSVNISGQNTMNMVKVPECRLADELGGLWENSRFTDCCLCVAGQEFQAHKAILAARSPVFSAMFEHEMEESKKNRVEINDVEPEVFKEMMCFIYTGKAPNLDKMADDLLAAADKYALERLKVMCEDALCSNLSVENAAEILILADLHSADQLKTQAVDFINYHASDVLETSGWKSMVVSHPHLVAEAYRSLASAQCPFLGPPRKRLKQS [Y87C] | with no effect |
